# Test results published in the supplement of paper PMC12042874.
# ± gives the uncertainty stated by the source.
# Assay: amyloid nucleation score (Sup35N fusion, yeast selection) (log enrichment); library NNK1; higher = more nucleation; inactive = no reads after selection
# In short: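 In psi-negative yeast, Sup35N fusions carrying peptides of 20 random codons were induced with 100 μM copper sulfate for 24 hours. The cells then grew 7 days at 30°C on medium lacking adenine and uracil, and plasmid inserts from input and output were Illumina-sequenced, excluding sequences with under 100 input reads. Nucleation score is the DiMSum log enrichment of output over input reads, centred on the mode score of non-aggregating sequences.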
row,Substance,amyloid nucleation score
1,LVHPQVSVGS,0.632 ± 0.74
2,DPPTL,0.409 ± 0.42
3,ALWNYAVNSTLWWGLGYGWR,0.052 ± 0.41
4,FSMIMSLDVL,-0.397 ± 0.4
5,FGHGV,-0.626 ± 1.6
6,KGKAAT,-0.534 ± 0.87
7,FWSMIGLWILDC,0.031 ± 0.25
8,DQVQGFISFLMLFKDFVSYG,-0.028 ± 0.33
9,NGANMLVCKRFVLVNLYGPA,6.02 ± 0.063
10,IIRLVQNRSIMSFAMGISWV,2.4 ± 0.33
11,TCLTY,-0.846 ± 2.4
12,TNYWPVIFG,0.116 ± 0.36
13,NVWLWDTKFILQTRIPS,-0.026 ± 1.7
14,PPHLLFCYNMVLTWWLYAFA,0.088 ± 1.2
15,PWDSHSHHSTNRQLRFSSSG,-0.397 ± 0.6
16,SPPDVSNN,-0.169 ± 0.75
17,LIFLKLSSIRYFLMGHY,1.43 ± 0.25
18,SVPDVVSYTKDTVVFNFGFT,3.31 ± 0.083
19,VNVCYTMMEFVAGVYSGLLR,0.288 ± 0.29
20,SMFRVYYSGGQLQ,4.75 ± 0.058
21,CRLFVFPF,-0.336 ± 1.4
22,WPGLFMIY,0.016 ± 0.49
23,SVLCHCVLNVWLGWHLWIDP,0.707 ± 0.53
24,YRSYTRNWTLTIPGCTLRSL,-1.93 ± 2.7
25,WSIDVNTTACKFFFRCSSCN,1.43 ± 0.74

row,Substance,amyloid nucleation score
1,ACSPGTVVKDITDTSK,0.45 ± 0.63
2,CVRFDSVNCHHLF,0.238 ± 0.24
3,FRVVCVHSLSMGNVFNFDWR,4.77 ± 0.08
4,GVLRSSTSTVRGSCAGFHRL,0.29 ± 0.43
5,ALGYGIWGSICNWVWDPFTA,inactive
6,GISSVG,0.677 ± 0.4
7,KVLNVCRL,inactive
8,IAYLNKAKNLFLC,inactive
9,FYKQLYSAEHKKFSCTAFVK,inactive
10,PSSGLFASLIVMSTVRTDLI,-0.307 ± 0.38
11,RADGLHASETVGSLL,-1.13 ± 2.7
12,ALDVARDKDVILYEFQLELR,0.366 ± 0.72
13,MGDVFILFLLAGFLEDHNGY,-1.24 ± 0.45
14,LEDNMEFDFKSRKDSNLCNG,0.611 ± 0.34
15,HSCRMYYSQRIYIPSNDGSD,1.68 ± 0.29
16,GLSLIA,0.983 ± 0.76
17,SLLNRVGLWRRSSLCLMTGC,0.538 ± 0.26
18,RLCPSCLVKWMTLWFVWIVR,0.769 ± 0.41
19,VGNMYYGSTSHNDT,-1.48 ± 1.7
20,YYISRVVVDGIRKYWGYLES,-0.866 ± 1.9
21,ESLRDRARWGNCMQILICSL,-0.055 ± 0.55
22,VFKSVFY,1.99 ± 0.32
23,VKYGTLYEGRNDLIDVR,0.635 ± 0.62
24,STTPQRLNFDMSTPISWIRQ,0.173 ± 0.32
25,WTFTVVFFLKVSSL,0.81 ± 0.78

row,Substance,amyloid nucleation score
1,LYHSVSSVEDLQSDACTSCM,6.728 ± 0.046
2,TAIDITTVLCIICRDPHINL,8.364 ± 0.048
3,NGGMGSPLDYQRWSDGDQVG,-0.365 ± 1.1
4,CYLACLLQTHYND,-1.18 ± 2.7
5,DEITLMLA,0.155 ± 0.35
6,HMVHGMFY,-0.251 ± 0.7
7,LWGFSISYRKFVVSYGKAP,0.279 ± 0.31
8,TCRIVVGSSCFRSTVFSFLY,1.45 ± 0.68
9,MSGFTESRCMGRMVALGPFD,0.4 ± 1.4
10,REYNSYLLGVGHNLQLRSYI,inactive
11,SHLGVMLNIRYNKSPQTTAP,2.1 ± 0.41
12,RKIVYVYEDVVRLNTCRISS,0.034 ± 0.93
13,SAHHLVIRFGMLYPREQHCL,0.299 ± 0.43
14,SWSLALL,-0.278 ± 0.85
15,DFKVAL,-0.644 ± 0.35
16,FATAGKFVY,-1.23 ± 1.2
17,WADNNTSH,-0.094 ± 0.34
18,RGFMWLACITCFYAVCYNVS,0.005 ± 0.45
19,RDTNVWFHT,-0.267 ± 1.1
20,WYLWHMLICLVTFRMNSFFR,0.707 ± 1
21,HFSGYMFCNPLTSGIVNATW,6.404 ± 0.045
22,SLVYQYIVLCTV,-1.47 ± 1.2
23,DTLHSNCCGSWPYDSSKRNV,0.95 ± 0.33
24,TGCHKS,0.915 ± 0.97
25,ISRDNNQTGLMGGLERRTES,0.533 ± 0.65

row,Substance,amyloid nucleation score
1,LWPTGSRLSDG,-0.354 ± 0.51
2,DVWKAGSVGPRQLVRRGGRR,0.259 ± 0.81
3,HNWCRSSRRVVMSFMCKTKL,0.412 ± 1.1
4,TVLSRVFWQRDGFVIAQSDG,inactive
5,YSHDSSSTIFRNETPLSTPM,inactive
6,VIMFSFIS,5.04 ± 0.062
7,FVSVCD,-0.049 ± 1
8,VLINYLKMSDTCNFRLFLFK,5.916 ± 0.055
9,VDLFYE,inactive
10,ESFGRTISVTELSHMT,0.487 ± 0.39
11,ASAFVRVMNV,0.527 ± 0.5
12,NNTFIMLIF,6.98 ± 0.083
13,MIMTW,-0.418 ± 0.48
14,STTILCLLI,5.21 ± 0.061
15,TFTMSWLK,3.22 ± 0.078
16,VFYLCSLLCLIVKRLGQGDC,0.484 ± 0.57
17,RRRSLLLVWRMTVGWVWGWD,-0.215 ± 0.62
18,LGVAFQRYVCICEVVSLSRG,0.523 ± 0.32
19,FNYEGYNMSCCGYRQFMEFG,5.87 ± 0.073
20,QGNHVKCVLCRVIPMRCLGL,-1.41 ± 1.1
21,FASMIFSRASSSSDNIFFRN,0.361 ± 0.22
22,WSIEWFYSMSYARIDME,-1.23 ± 0.79
23,CFEYFY,-0.664 ± 0.32
24,RRMTDLFV,-0.354 ± 0.3
25,FVVLSRFACRLRLTR,0.853 ± 0.55

row,Substance,amyloid nucleation score
1,SRLLMKRIYYCVYPKGTTKK,inactive
2,KREKEYFNERLPTDLSLQRC,-1.21 ± 0.66
3,GVCVKGKRWDAEGVLRNAYT,1.41 ± 0.46
4,LYLYNYRFAGLFFIDLETIW,-0.415 ± 0.57
5,VKRRLSHYAHMDGFVCNIR,0.286 ± 1.4
6,CNMKNDLTRGNSRFCNLCCN,0.85 ± 0.53
7,NEECVPHV,0.223 ± 0.34
8,GLRWYQFEPTQG,0.126 ± 0.38
9,YISNTRRLLQMIVCVMKSYG,inactive
10,EVLKVSHSF,-0.009 ± 0.46
11,GFRPEMHGV,inactive
12,SSYVNRDCAFLWDD,2.75 ± 0.19
13,TSRIFRCCCNCWSHA,1.31 ± 0.11
14,LLGNSLAVSFSFNSLVNHYS,6.02 ± 0.063
15,ALSSNVGSMAFSR,-0.06 ± 0.88
16,YYGQII,1.54 ± 0.38
17,CYFVCNDHCYFYQSLLQTHE,5.32 ± 0.058
18,ARATQAEYRIERRGRFCILS,0.21 ± 0.38
19,TYPLGNSESISVRLFIQYVT,1.39 ± 0.12
20,RKRPTGTHAVDVSRGFT,1.27 ± 0.71
21,EQRVNLISVWIRGDLETPHG,0.47 ± 0.73
22,CFLMNLVAYFVFLRTLS,1.49 ± 0.56
23,LALVRVIGDKNRWWRILSVW,0.708 ± 0.58
24,LDRVSWSDRKSNGQ,1.44 ± 0.41
25,FLNLGSSDQSHYSCTKEWSH,-0.157 ± 0.51

row,Substance,amyloid nucleation score
1,LCSLVFTIRRTPPWVQSMLR,0.096 ± 0.8
2,DTENPSYMNVNCYWRLLFSR,0.669 ± 0.4
3,HLLSGMITCDDLHGCGLEGI,0.344 ± 0.35
4,VGSIVELSVHTTSDEKVSCR,0.316 ± 0.25
5,SIHVVYNPTFQMNCYTFRLS,7.888 ± 0.05
6,YDRNRSMPSLLRP,inactive
7,ILKSFLD,-0.071 ± 0.42
8,SIMLADYPIHLVSNTPRMVL,0.809 ± 0.82
9,CSFFTKDSDTP,0.327 ± 0.3
10,IFAVHMLYSECTGSFRYHWS,0.055 ± 0.79
11,IYIMKHASSSMNGVSVQDFM,0.695 ± 0.67
12,TSMPDLGWAVSVAAQFYNFQ,5.5 ± 0.077
13,SSLYETY,inactive
14,GAFWGFFFKCLSTTLNNSWL,inactive
15,LKLYINIIVVNYNLLSICSH,-0.504 ± 0.24
16,FIISSTQPRCRAPLTS,-0.165 ± 0.56
17,SLYVYISRFMTLMGCLTVNH,0.575 ± 0.35
18,SSSVYVVVEPDMNGLMGMRK,0.08 ± 0.61
19,MRGAVKVGEMWNHISESRVG,0.98 ± 0.6
20,RCVSAFLLLFSMHRHG,1.28 ± 0.36
21,MRCSDFELMWFQIDDKYVDN,-0.201 ± 0.17
22,LQERWMAMGGGGQGVVWGFT,0.305 ± 0.79
23,VGKITESLLEQLKARHLFCH,4.41 ± 0.058
24,RNIWNLVLDKNAHMNCFMTH,0.087 ± 0.46
25,CRNWKWSRRFYYGERNGGRL,0.416 ± 0.81

row,Substance,amyloid nucleation score
1,MYISRFRF,3.42 ± 0.15
2,HVMIFVIFPENYNICTFMKY,2.29 ± 0.2
3,EALLWTEGMWHSSGGLYSNV,0.261 ± 0.27
4,SVGYH,0.699 ± 0.59
5,PGYYLEYFLYVNLSWAKTWG,0.018 ± 0.27
6,QLLSISRILLMNRELRRR,-0.623 ± 1
7,SIWCGRYIIMESVGTPLRSR,0.438 ± 0.8
8,FVSVAQVEE,-1.2 ± 1
9,NVCPFWGYKDAW,0.435 ± 0.22
10,EHHGGISGGNKCCSTCKSRR,0.361 ± 1
11,ARAFPNMPPVLILILHLRLY,0.961 ± 0.35
12,GVSSLLGRHRRGVSFEGDSV,-0.65 ± 0.54
13,ETLAFVLRFRNREDFCGGMV,1.01 ± 0.64
14,RVLDLKWPCYMGSVNLASRR,0.016 ± 0.74
15,VNNRRRVSVHDLRDATPGTF,0.099 ± 0.53
16,SHSLHLESSASSLTR,-1 ± 0.51
17,RRLPA,-0.091 ± 0.9
18,VSRVTASYRFIFNYYEMDTS,inactive
19,DFFGWTNRNHQNSDSFLWDG,0.69 ± 0.41
20,FTMKMGYMVAFIW,-0.394 ± 0.25
21,MFFGWGT,1.19 ± 0.34
22,PYIRVRLFMVVY,0.659 ± 0.56
23,CFMVHNTVVRVGKE,0.177 ± 0.7
24,TSLWCQLRKFNYI,-0.181 ± 0.26
25,AVLHLSDCERNYFTFTVNCG,6.207 ± 0.049
